T1: mouse TEAD4(210–427), as purified (SPR) (mouse), Q62296
T1 chain: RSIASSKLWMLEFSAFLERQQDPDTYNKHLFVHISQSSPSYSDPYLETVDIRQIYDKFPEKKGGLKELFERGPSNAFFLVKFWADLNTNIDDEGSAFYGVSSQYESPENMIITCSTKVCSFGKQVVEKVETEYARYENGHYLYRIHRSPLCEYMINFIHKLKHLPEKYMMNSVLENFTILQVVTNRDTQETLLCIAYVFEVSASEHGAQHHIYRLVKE


Tests used:
Experiment in all cases: SPR; GST-hTEAD1 and mTEAD4 covalently tethered (NHS/EDC) on CM5 chips, 2000–3000 RU; peptides as analytes, threefold dilutions, typically 30 µM top concentration; 10 mM HEPES, 150 mM NaCl, 0.05% Tween-20, pH 7.4, 0.3% DMSO, 20 °C; steady-state fit, 1:1 model
[1] = biological target: GST-hTEAD1(209–426) (human), P28347
[2] = biological target: T1, mouse TEAD4(210–427), as purified (SPR) …
[3] = biological target: GST-hTEAD1(209–426) (human) (UniProt P28347)

Row | Kd [1] [µM] | Kd [2] [µM] | Kd [3] [µM] | Binder
1 | > 100 | > 100 |  | KEPEPAPNSVSITG (modifications not checked) [VGL4 intervening extended stretch peptide (peptide 3), Q80V24 203-256]
2 | 19.4 | 21.8 |  | DPVVEEHFRRSLGKNY (modifications not checked) [VGL4 N-terminal α-helix peptide (peptide 2, helix α1), Q80V24 203-256]
3 | 4.3 | 3.1 |  | SVDDHFAKALGDTWLQIKAA (modifications not checked) [VGL4 C-terminal two-helix motif peptide (peptide 4, helices α2/α3), Q80V24 203-256]
4 | > 100 | > 100 |  | DTWLQIKAA (modifications not checked) [isolated helix peptide 6 derived from the VGL4 two-helix motif 4, Q80V24 203-256]
5 | > 100 | > 100 |  | SVDDHFAKALG (modifications not checked) [isolated helix peptide 5 derived from the VGL4 two-helix motif 4, Q80V24 203-256]
6 |  |  | 1.4 | VGL4(203–256), full-length VGL4-derived TEAD binding sequence (peptide 1) (peptide) peptide: DPVVEEHFRRSLGKNYKEPEPAPNSVSITGSVDDHFAKALGDTWLQIKAAKDSA
